Assay results: paper doi:10.1101/2021.03.04.433768 (bioRxiv, 2021)

Target: HexaPro, a prefusion construct of the SARS-CoV-2 spike (SARS-CoV-2, Wuhan-Hu-1 reference spike …, UniProt P0DTC2, stabilised)
Assay: negative-stain EM

B1: Nb56 (llama nanobody, monomer) (VHH)
VHH: QVQLQESGGGLVQAGDSLRLSCVASERTFRRYGMGWFRQAPGKEREFVAAVDRSHTKTGYADFVKGRFTISTNYENMVYLQMNSLKPEDTAVYYCAAPSYEKGSDPTSWNTDRGYDYWGQGTQVTVSS
binding result: binds
